Values joined by “and” are separate entries in the source; they are usually repeats but may differ in a detail not shown here. Identical values can stand only once.
How the values were obtained:
Ly110 = target: T1, Ly110; assay: ELISA, clone 3712-IgG1v coated, CD137 protein titrated (EC50 is a concentration of the CD137 protein); full sigmoid, plateau about 1.9
T1 chain: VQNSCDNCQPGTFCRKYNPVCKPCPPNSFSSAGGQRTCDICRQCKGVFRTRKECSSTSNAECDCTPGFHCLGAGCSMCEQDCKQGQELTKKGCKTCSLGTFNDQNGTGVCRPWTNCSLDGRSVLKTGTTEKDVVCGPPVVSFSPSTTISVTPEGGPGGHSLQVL
Description: (§1) The plate was decanted and washed once; assay diluent was added 200 μL/well. After one-hour incubation at room temperature, the plate was washed with PBST one time. CD137 receptor human/mouse chimeras were diluted in assay diluent to 100 or 10 μg/mL, and then a 4-fold serial dilution in assay diluent for 11 points to final concentrations of 100000, 25000, 6250, 1562.5, 390.63, 97.66, 24.41, 6.10, 1.53, 0.38 and 0.095 ng/mL or 10000, 2500, 625, 156.25, 39.06, 9.77, 2.44, 0.61, 0.15, 0.038 and 0.0095 ng/mL. The diluted CD137 receptor was added to the assay plate, 50 μL/well, in duplicate. The plate was incubated one hour at room temperature and then washed three times with PBST. Goat anti-human IgG-H+L HRP conjugated at 1:100,000 20 dilution was added to the plate at 100 μL/well. The plate was then incubated one hour at room temperature followed by washing with PBST four times. The TMB substrate solution was added at 100 μL/well. The color was allowed to develop for 15 minutes, and was stopped with 100 μL/well 2N H2SO4. Absorbance at 450 nm and 620 nm was determined by a Tecan F200 Pro reader.

human CD137 on cells [1] = target: T2, human CD137 on cells (human, UniProt Q07011 24-255); assay: flow cytometry on human PBMC pre-activated with anti-CD3, gate on CD8+ T cells (endogenous CD137)
T2 construct: whole, on cells; also called CHO-human CD137; CHO cells over-expressing human CD137
Description: To obtain activated T cells in human PBMC, a 24-well plate was coated with 300 μL DPBS containing 2 μg/mL AffiniPure goat anti-mouse IgG, Fcγ fragment specific at 4° C. overnight. The plate was washed 3 times with DPBS. The antibody OKT3 was added to the plate at 1 μg/mL, 100 μL/well. The plate was incubated at 37° C. for 1 hour. A freshly thawed vial of human PBMCs was transferred into a 50 mL tube containing 25 mL pre-warmed culture medium (RPMI1640 containing 10% FBS), and spun at 250 g for 10 min The cell pellet was resuspended in 2 mL complete culture medium (culture medium containing 50 uM 2-Me) and the cell density was adjusted to 3.3*10\hat{ }6 cells/mL in the complete culture medium and then 900 μL/well cell suspension was transferred to the plate. The culture was incubated at 37° C. with 5% CO₂ for about 48 hours. After the incubation, the cells were harvested and washed once with DPBS. The cell pellet was resuspended in cold assay buffer and the cell density was adjusted to 2*10\hat{ }6 cells/mL. 100 μL of the cell suspension was transferred to a 96-well v-bottom plate. […] The plate was incubated in the dark for 30 minutes at 4° C. […] After incubation in the dark for 5 minutes at 4° C., the cells were analyzed on the flow cytometer immediately.

[2] = target: T3, human FcγRIIIA-Phe158 on CHO-K1 cells (human, UniProt P08637 17-254); assay: flow cytometry on CHO-huFcγRIIIA cells, PE anti-human Fc F(ab')2
T3 construct: whole, on cells; also called CHO-K1-huFcγRIIIA-Phe158; CHO-huFcγIIIA
T3 sequence (P08637 17-254): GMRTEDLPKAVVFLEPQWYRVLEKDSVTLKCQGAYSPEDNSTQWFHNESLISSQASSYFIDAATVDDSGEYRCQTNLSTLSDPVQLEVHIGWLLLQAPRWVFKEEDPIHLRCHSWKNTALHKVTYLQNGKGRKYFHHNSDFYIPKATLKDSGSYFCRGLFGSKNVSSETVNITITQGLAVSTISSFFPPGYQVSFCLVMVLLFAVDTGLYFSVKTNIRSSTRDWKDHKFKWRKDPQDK
Description: The plate was mixed and incubated in the dark for 2 hours at 4° C.

Ly052 = target: T4, Ly052; assay: ELISA, clone 3712-IgG1v coated, CD137 protein titrated (EC50 is a concentration of the CD137 protein); curve rises only above about 1000 ng/mL to about 0.61 at 100000 ng/mL, no plateau seen
T4 chain: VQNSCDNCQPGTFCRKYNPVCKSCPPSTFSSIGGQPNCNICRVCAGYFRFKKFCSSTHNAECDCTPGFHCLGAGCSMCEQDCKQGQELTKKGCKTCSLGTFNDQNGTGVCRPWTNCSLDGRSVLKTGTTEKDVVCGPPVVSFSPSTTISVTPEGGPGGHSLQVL
Description: as §1

[3] = target: T5, cynomolgus monkey CD137 on cells (cynomolgus monkey, UniProt A9YYE7 24-254); assay: flow cytometry on CHO cells over-expressing cynomolgus CD137; average, n=6
T5 construct: whole, on cells; also called CHO-cynomolgus monkey CD137
T5 sequence (A9YYE7 entry or part of it): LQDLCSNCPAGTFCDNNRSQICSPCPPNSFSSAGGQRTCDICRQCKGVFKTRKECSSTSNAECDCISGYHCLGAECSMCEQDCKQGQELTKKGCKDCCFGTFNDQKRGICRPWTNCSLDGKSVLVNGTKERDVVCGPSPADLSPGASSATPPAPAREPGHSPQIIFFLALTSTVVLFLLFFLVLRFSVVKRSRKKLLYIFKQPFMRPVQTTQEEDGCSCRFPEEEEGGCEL
Description: (§2) CHO cells over-expressing human or cynomolgus monkey CD137 and CHO parental cells were harvested by centrifugation at 1000 g for 3 minutes. The cells were resuspended in ice cold assay buffer at 2*10\hat{ }6/mL and transferred to 96-well V-bottom plate with 100 μL/well. […] The plate was mixed and incubated in the dark for 2 hours at 4° C. The cells were washed 3 times by centrifugation at 1000 g for 3 min and resuspended in ice cold assay buffer containing goat F(ab′)₂ anti-human IgG-Fc (PE), 100 μL/well. The plate was incubated in the dark for another 1 hour at 4° C. The cells were washed 2 times by centrifugation at 1000 g for 3 min and resuspended in ice cold assay buffer containing 2% PFA. The cells were then subjected to the flow cytometer immediately.
(§3) Mean fluorescence intensity (MFI) was calculated from the total cell population in the FCM experiments. Graphpad 7.0, “[Agonist] vs. response—Variable slope (four parameters)” was used to plot the binding MFI in dose response and to calculate FCM binding EC₅₀ values.

human CD137 on cells [4] = target: T2, human CD137 on cells; assay: flow cytometry, cellular CD137; human CD137
Description: as §2, §3
Target sequence in this assay (Q07011 24-255): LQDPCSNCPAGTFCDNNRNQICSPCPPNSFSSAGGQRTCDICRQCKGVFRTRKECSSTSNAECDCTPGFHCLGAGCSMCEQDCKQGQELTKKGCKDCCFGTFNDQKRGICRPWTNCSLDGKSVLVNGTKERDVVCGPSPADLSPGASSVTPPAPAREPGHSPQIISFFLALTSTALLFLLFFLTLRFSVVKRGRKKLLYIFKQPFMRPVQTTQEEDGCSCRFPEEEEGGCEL

human CD137 on cells [5] = target: T2, human CD137 on cells; assay: flow cytometry on CHO cells over-expressing human CD137; average, n=6
Description: as §2, §3
Target sequence in this assay (Q07011 24-255): as above

[6] = target: T6, recombinant human CD137 receptor protein (human, UniProt Q07011 24-186); assay: ELISA, huCD137 coated, clone 3712 titrated; full sigmoid, plateau about 1.5
T6 construct: Coated on ELISA plates; also called recombinant human CD137 protein
T6 sequence (Q07011 24-186 limits assumed): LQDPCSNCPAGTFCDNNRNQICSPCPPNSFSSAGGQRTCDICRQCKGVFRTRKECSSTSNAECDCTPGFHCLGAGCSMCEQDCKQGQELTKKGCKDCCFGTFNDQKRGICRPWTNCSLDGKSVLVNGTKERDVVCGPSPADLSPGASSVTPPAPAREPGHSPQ
Description: For the data shown in FIGS. 16C-D, chimeric CD137 receptor protein samples were diluted in DPBS to 5 μg/mL and then coated onto an ELISA plate (Corning, Catalog number: 9018, high binding) at 50 μL (0.25 μg) per well, and incubated at 4° C. overnight. The plate was decanted and washed once; assay diluent was added at 200 μL/well. After a 1-hour incubation at room temperature, the plate was washed with PBST one time. […] The plate was incubated 1 hour at room temperature and then washed three times with PBST. Goat anti-human IgG-H+L HRP-conjugated at 1:100,000 dilution or goat anti-mouse IgG (H+L) secondary antibody, HRP, 10 at 1:50,000 dilution was added to the plate at 100 μL/well. The plate was incubated 1 hour at room temperature followed by washing with PBST four times. The TMB substrate solution was added 100 μL/well. The color was permitted to develop for 15 minutes and then 100 μL/well 2N H2SO4 was added to terminate the reaction. Absorbance at 450 nm and 620 nm was determined by a Tecan F200 Pro reader.

EC50 (Ly110): 0.101 µg/mL
EC50 (read off the curve) (human CD137 on cells [1]): ~0.03 µg/mL
binding result [2]: no binding (tested: 100 µg/mL)
EC50 (Ly052): 29.5 µg/mL
EC50 [3]: 0.26 nM and 0.0369 µg/mL
EC50 (human CD137 on cells [4]): ~0.3 nM
EC50 (human CD137 on cells [5]): 0.35 nM and 0.0497 µg/mL
EC50 [6]: 0.0495 µg/mL
B1: Clone 3712-IgG1v (IgG1v/kappa) (antibody)
heavy: QVQLVQSGAEVKKPGASVKVSCKASGYTFAGFEMHWVRQAPGQGLEWMGAIDPKTGGTDYNQKFKDRVTMTRDTSISTAYMELSRLRSDDTAVYYCARDLGYFDVWGQGTLVTVSSASTKGPSVFPLAPSSKSTSGGTAALGCLVKDYFPEPVTVSWNSGALTSGVHTFPAVLQSSGLYSLSSVVTVPSSSLGTQTYICNVNHKPSNTKVDKKVEPKSCDKTHTCPPCPAPELLGPSVFLFPPKPKDTLMISRTPEVTCVVVDVEHEDPEVKFNWYVDGVEVHNAKTKPREEQYNSTYRVVSVLTVLHQDWLNGKEYKCKVSNKALPAPIEKTISKAKGQPREPQVYTLPPSREEMTKNQVSLTCLVKGFYPSDIAVEWESNGQPENNYKTTPPVLDSDGSFFLYSKLTVDKSRWQQGNVFSCSVMHEALHNHYTQKSLSLSPGK
light: DIQMTQSPSSLSASVGDRVTITCRASQDIRSNLNWYQQKPGGAVKLLIYYTSRLHSGVPSRFSGSGSGTDYTLTISSLQPEDFATYFCQQSEKLPRTFGGGTKVEIRRTVAAPSVFIFPPSDEQLKSGTASVVCLLNNFYPREAKVQWKVDNALQSGNSQESVTEQDSKDSTYSLSSTLTLSKADYEKHKVYACEVTHQGLSSPVTKSFNRGEC
notes: copies: 2 + 2

Source: patent US20210246218A1 (LYVGEN BIOPHARMA SUZHOU, published 2021)
